In patent US20140377282A1 (APEXIGEN, published 2014):

Assays:
recombinant human KDR [1] = biological target: T1, recombinant human KDR (human, UniProt P35968 20-764, limits assumed); assay: inhibition of KDR binding to VEGF, ligand-receptor binding assay
T1 construct: also called VEGFR2

recombinant human KDR [2] = biological target: T1, recombinant human KDR; assay: ELISA: antibody pre-incubated with 5 µg/ml recombinant human KDR, then transferred to a VEGF-coated plate; KDR bound to VEGF detected (OD405); blocked ligand VEGF
Procedure: (§1) An ELISA-based KDR-VEGF binding assay was developed and used to assess the potency of APX004 at blocking KDR binding to VEGF. A total of 2 μg/ml VEGF was coated on ELISA plates. APX004, the parental rabbit antibody R-36 or IgG1 isotype control antibody were pre-incubated with 5 μg/ml recombinant human KDR before being transferred to the VEGF-A coated ELISA plates. KDR bound to immobilized VEGF was detected by a mouse anti-KDR monoclonal antibody, followed by the addition of goat anti-mouse IgG conjugated with alkaline phosphatase (Fisher Scientific/Pierce Biotechnology, Rockford, Ill.). ELISA plates were developed with p-nitrophenyl phosphate substrate and absorbance at 405 nm was recorded. All experiments were performed in triplicate.

recombinant human KDR [3] = biological target: T1, recombinant human KDR; assay: method not stated
recombinant human KDR [4] = biological target: T1, recombinant human KDR; assay: competition ELISA: APX004 pre-incubated with 5 µg/ml recombinant human KDR, then on coated VEGF-A; bound KDR detected
Procedure: as §1

[5] = biological target: T2, rabbit Fc-fusion protein of human VEGFR1 (human; rabbit, UniProt P17948 27-758, limits assumed); assay: direct ELISA: 1 µg/ml protein coated, 1 µg/ml APX004, goat anti-human HRP-conjugated IgG
T2 construct: also called Flt-1; not shown: rabbit immunoglobulin Fc
T2 sequence (P17948 27-758 limits assumed): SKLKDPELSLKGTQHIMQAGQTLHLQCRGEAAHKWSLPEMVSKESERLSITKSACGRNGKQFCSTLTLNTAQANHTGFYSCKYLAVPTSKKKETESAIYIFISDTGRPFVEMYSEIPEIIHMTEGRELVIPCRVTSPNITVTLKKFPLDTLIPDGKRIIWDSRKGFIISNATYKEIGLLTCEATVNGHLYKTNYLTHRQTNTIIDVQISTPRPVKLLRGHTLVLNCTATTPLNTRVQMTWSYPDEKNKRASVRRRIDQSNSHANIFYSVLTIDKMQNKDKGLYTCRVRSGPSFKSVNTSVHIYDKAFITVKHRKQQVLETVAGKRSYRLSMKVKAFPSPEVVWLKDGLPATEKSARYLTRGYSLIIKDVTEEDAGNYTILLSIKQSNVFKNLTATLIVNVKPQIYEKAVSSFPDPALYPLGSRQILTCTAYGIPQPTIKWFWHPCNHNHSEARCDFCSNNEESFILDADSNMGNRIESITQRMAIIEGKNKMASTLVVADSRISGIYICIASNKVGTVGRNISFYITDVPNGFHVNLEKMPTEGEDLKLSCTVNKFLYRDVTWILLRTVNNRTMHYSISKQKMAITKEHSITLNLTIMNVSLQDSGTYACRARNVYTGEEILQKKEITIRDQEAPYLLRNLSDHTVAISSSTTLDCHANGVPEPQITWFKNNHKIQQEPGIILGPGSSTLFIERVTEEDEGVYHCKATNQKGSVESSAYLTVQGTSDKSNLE
Procedure: (§2) Binding selectivity of APX004 was assessed by direct ELISA to VEGFR family proteins. A total of 1 μg/ml of rabbit Fc-fusion protein of human KDR, mouse KDR, human VEGFR1, human VEGFR3, human OX40L and human VEGF were coated on ELISA plates followed by incubation with 1 μg/ml of APX004. Bound APX004 was detected using goat anti-human HRP-conjugated IgG.

[6] = biological target: T3, rabbit Fc-fusion protein of mouse KDR (mouse; rabbit, UniProt P35918 20-762, limits assumed); assay: as above
T3 construct: not shown: rabbit immunoglobulin Fc
T3 sequence (P35918 20-762 limits assumed): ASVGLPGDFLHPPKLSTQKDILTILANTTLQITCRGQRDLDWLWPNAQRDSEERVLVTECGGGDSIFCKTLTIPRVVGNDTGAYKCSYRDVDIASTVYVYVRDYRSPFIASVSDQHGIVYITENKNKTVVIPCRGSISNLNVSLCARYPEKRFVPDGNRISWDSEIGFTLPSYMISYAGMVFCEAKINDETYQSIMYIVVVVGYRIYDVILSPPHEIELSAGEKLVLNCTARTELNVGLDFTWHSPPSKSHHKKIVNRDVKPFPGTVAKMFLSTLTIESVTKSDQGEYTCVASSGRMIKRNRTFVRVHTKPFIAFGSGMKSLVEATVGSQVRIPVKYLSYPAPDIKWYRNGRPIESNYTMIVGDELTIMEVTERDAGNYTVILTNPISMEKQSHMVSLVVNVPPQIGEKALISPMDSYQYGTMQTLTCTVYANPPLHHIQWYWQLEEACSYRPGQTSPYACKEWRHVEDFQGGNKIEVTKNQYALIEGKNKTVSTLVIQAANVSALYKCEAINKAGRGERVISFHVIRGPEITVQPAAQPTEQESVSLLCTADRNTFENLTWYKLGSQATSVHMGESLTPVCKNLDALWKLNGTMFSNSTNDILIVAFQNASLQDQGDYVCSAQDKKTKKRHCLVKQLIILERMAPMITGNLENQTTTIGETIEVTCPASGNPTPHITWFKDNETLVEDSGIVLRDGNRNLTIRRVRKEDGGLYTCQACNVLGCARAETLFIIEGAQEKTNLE
Procedure: as §2

[7] = biological target: T4, human VEGF (coated in the selectivity ELISA) (human, UniProt P15692-4 27-191, limits assumed); assay: as above
T4 construct: the sentence lists it last after 'rabbit Fc-fusion protein of'
T4 sequence (P15692 other isoform, or with tags, fused parts or gaps limits assumed): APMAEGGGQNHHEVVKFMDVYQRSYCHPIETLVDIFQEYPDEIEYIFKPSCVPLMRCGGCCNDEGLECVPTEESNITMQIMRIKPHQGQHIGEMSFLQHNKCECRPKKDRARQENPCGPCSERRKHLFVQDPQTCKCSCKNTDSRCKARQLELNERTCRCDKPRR
Procedure: as §2

[8] = biological target: T5, rabbit Fc-fusion protein of human VEGFR3 (human; rabbit, UniProt P35916 25-775, limits assumed); assay: as above
T5 construct: not shown: rabbit immunoglobulin Fc
T5 sequence (looked up): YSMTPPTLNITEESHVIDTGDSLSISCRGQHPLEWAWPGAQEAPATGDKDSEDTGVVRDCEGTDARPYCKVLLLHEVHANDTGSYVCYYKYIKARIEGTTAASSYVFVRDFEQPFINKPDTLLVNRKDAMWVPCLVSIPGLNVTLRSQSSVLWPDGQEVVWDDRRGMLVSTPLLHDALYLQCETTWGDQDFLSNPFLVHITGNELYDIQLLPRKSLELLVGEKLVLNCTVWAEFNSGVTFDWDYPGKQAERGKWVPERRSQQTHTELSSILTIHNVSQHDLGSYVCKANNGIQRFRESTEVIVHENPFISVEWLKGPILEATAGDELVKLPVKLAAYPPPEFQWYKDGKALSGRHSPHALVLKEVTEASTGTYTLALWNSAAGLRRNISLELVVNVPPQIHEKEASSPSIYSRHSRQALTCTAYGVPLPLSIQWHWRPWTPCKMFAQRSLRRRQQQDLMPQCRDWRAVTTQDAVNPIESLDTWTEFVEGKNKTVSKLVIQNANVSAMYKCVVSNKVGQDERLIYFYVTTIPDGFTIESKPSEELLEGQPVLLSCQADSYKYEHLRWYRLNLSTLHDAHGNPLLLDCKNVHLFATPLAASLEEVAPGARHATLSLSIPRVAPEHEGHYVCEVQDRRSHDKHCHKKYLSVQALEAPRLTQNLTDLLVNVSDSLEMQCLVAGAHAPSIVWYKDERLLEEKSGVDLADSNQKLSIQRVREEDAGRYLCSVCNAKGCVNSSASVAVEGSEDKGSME
Procedure: as §2

mouse KDR = biological target: T6, mouse KDR (mouse, UniProt P35918 20-762, limits assumed); assay: restated in the summary of the Examples
T6 construct: also called murine KDR
T6 sequence (P35918 20-762 limits assumed): as the sequence (P35918 20-762 limits assumed) above

T1 sequence (P35968 20-764 limits assumed): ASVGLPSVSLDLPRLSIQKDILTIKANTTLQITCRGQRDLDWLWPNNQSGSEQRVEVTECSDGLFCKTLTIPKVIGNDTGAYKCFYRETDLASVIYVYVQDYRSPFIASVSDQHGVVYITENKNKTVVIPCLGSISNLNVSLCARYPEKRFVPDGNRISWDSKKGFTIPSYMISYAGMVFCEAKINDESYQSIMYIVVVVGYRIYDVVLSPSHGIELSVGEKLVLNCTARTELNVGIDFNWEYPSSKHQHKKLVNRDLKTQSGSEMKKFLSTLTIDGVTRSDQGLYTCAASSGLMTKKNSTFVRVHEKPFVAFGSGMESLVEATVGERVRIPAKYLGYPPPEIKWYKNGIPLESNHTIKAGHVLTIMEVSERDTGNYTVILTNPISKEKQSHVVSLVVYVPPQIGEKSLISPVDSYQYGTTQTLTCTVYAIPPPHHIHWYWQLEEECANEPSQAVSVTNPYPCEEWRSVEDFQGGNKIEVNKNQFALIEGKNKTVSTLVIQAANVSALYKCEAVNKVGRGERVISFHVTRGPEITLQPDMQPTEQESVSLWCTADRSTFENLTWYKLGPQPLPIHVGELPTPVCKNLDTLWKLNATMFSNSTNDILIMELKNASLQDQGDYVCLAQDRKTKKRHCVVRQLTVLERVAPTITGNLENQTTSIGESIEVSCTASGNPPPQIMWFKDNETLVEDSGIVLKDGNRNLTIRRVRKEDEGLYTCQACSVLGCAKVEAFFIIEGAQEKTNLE

B1: rabbit anti-KDR antibody clone 27 (antibody, V domains shown)
VH: QSVEESGGRLVTPGTPLTLTCTASGFALNDFAMSWVRQAPGKGLEWIGMIASSGNTFYASWAKGRFTISKTSTTVDLKFTSPTTEDTATYFCARVLWPGYIAYAYHNIWGPGTLVTVSS
VL: DPVLTQTPASVSAVVGGTVTINCQTSEDIASNLAWYQQKSGQRPKLLIYEASKLASGVPSRFKGSGSGTEYTLTISDLECADAATYYCQYTYYGSSYLGAFGGGTEVVVK
notes: rabbit monoclonal antibody, recombinantly expressed and purified for characterization
IC50 (recombinant human KDR [1]): 5.95 nM

B2: rabbit anti-KDR antibody clone 43 (antibody, V domains shown)
VH: QSVEESGGRLVTPGTPLTLTCTVSGFSLSSYAMSWFRQAPGKGLEWIGLIRSSGATYYASWAKGRFTISKASTTVDLKFTSPTTEDTATYFCARVLWPGDIAYAYHNIWGPGTLVTVSS
VL: DLVMTQTPSPVSAAVGGTVTINCQASEEIGGNLAWYQQKPGQPPKLLIYSASTLTSGVPSRFKGSGSGTEYTLTISDLECADAATYYCQYTYYGFSYVGPFGGGTEVVVK
notes: as for B1
IC50 (recombinant human KDR [1]): 7.54 nM

B3: rabbit anti-KDR antibody clone 83 (antibody, V domains shown)
VH: QSLEESGGRLVTPGTPLTLTCTVSGIDLSAYAMSWVRQAPGKGLEWIGLIRSSGATYYASWAKGRFTISKTSTTVDLKMTSPTTEDTATYFCARVLWPGEIAYAYHNIWGPGTLVTVSS
VL: DVVMTQTPASVSEPVGGTVTINCQASEEIGGNLAWYQQKPGQPPKLLIYSASSLTSGVPSRFKGSESGTEYTLTISDLECADAATYYCQYSYYGFNYVGPFGGGTEVVVK
notes: as for B1
IC50 (recombinant human KDR [1]): 9.77 nM

B4: rabbit anti-KDR antibody clone 81 (antibody, V domains shown)
VH: QSVEESGGRLVTPGTPLTLTCTVSGFSLSTYAMSWFRQAPGKGLEWIGLIRSSGATYYASWAKGRFTISKASTTVDLKFTSPTTEDTATYFCARVLWPGDIAYAYHNIWGPGTLVTVSS
VL: DLVMTQTPSPVSAAVGGTVTINCQASEEIGGNLAWYQQKPGQPPKLLIYSASTLTSGVPSRFKGSGSGTEYTLTINDLECADAATYYCQYPYYGFSYVGPFGGGTEVVVK
notes: as for B1
IC50 (recombinant human KDR [1]): 4.56 nM

B5: clone 36 rabbit anti-KDR antibody (antibody, V domains shown)
VH: QSVEESGGRLVTPGTPLTLTCTVSGIDLNNYAMSWVRQAPGKGLEWIGIIGSSGSIFYASWAKGRITISKTSTTVDLKFTSLTTEDTATYFCARVLWAGSVAYAYHNIWGPGTLVTVSS
VL: DPVMTQTPASVSEPVGGTVTINCQASEELGSNLAWYQQKPGQPPKLLIYSASTLASGVPSRFKGSGSGTEYTLTISDLECADAATYYCQYTYFGSSYLGAFGGGTEVVVK
notes: rabbit IgG, recombinantly expressed in 293-6E cells; also called R-36; parental rabbit monoclonal antibody 36
IC50 (recombinant human KDR [2]): 3.1 nM | IC50 (recombinant human KDR [1]): 6.25 nM

B6: APX004 (humanized clone 36 anti-KDR antibody) (antibody, human IgG1, kappa, V domains shown)
VH: EVQLVESGGGLVQPGGSLRLSCAASGFDLSSYAMSWVRQAPGKGLEWVGIIGSGGSTYYASWAKGRFTISKDSSKNTVYLQMNSLRAEDTAVYFCARVLWAGSVAYAYHNIWGPGTLVTVSS
VL: DIQMTQSPSSLSASVGDRVTINCQASEELGSNLAWYQQKPGKPPKLLIYSASTLASGVPSRFSGSGSGTDYTLTISSLQPEDFATYYCQYTYFGSSYLGAFGGGTKVEIKR
notes: also called humanized 36
Kd (recombinant human KDR [3]): 0.053 nM | IC50 (recombinant human KDR [4]): 2.6 nM | binding result [5]: no binding (tested: 1 µg/ml) | binding result [6]: binds | binding result [7]: no binding (tested: 1 µg/ml) | binding result [8]: no binding (tested: 1 µg/ml) | binding result (mouse KDR): binds

B7: rabbit anti-KDR antibody clone 15 (antibody, V domains shown)
VH: QSLEESGGDLVKPGTSLTLTCTASGFSFSARHFMYWVRQAPGKGLEWIGCIDIGSGSTYYTSWAKDRFTISKPSSTTVTLQMTSLTAADTATYFCARSSGYPYYFTLWGPGTLVTVSS
VL: AVVLTQTTSSVSADVGGTVTIKCQASENIYSLLAWYQQKPGQPPKLLIYSASDLASGVPSRFSGSGFGTEFTLTISDLECADAATYHCQSYYYSGSSADTGAFGGGTEVVVK
notes: as for B1
IC50 (recombinant human KDR [1]): 17.5 nM

B8: rabbit anti-KDR antibody clone 92 (antibody, V domains shown)
VH: QSVEESGGRLVTPGTPLTLTCTVSGFSLSSNAMSWVRQAPGEGLEWIGTISSSGSTYYATWVKGRFTISKTSTTVDLKMTSLTAADTATYFCARGDDDVSDYFYYFPIWGPGTLVTVSS
VL: AVVLTQTASPVSGAVGGTVTIKCQASQNIYNNLAWYRQKPGQPPKLLIYAASKLASGVPSRFSGSRSGTQFTLSISDLECADAATYYCQSYYFDSSSTDAAFGGGTEVVVK
notes: as for B1
IC50 (recombinant human KDR [1]): 32.9 nM

B9: rabbit anti-KDR antibody clone 23 (antibody, V domains shown)
VH: QSVEESGGRLVTPGTPLTLTCTVSGFSLSSNAMSWVRQAPGEGLEWIGTISSSGSTYYATWVKGRFTISKTSTTVDLKMTSLTAADTATYFCARGDDDVSDYFYYFPIWGPGTLVTVSS
VL: AVVLTQTASPVSGAVGGTVTIKCQASQNIYNNLAWYRQKPGQPPKLLIYAASKLASGVPSRFSGSRSGTQFTLSISDLECADAATYYCQSYYFDSSSTDAAFGGGTEVVVK
notes: as for B1
IC50 (recombinant human KDR [1]): 21.4 nM

B10: rabbit anti-KDR antibody clone 24 (antibody, V domains shown)
VH: QSVEESGGRLVTPGTPLTLTCTVSGFSLSSNAMSWVRQAPGEGLEWIGTISSSGSTYYATWVKGRFTISKTSTTVDLKMTSLTAADTATYFCARGDDDVSDYFYYFPIWGPGTLVTVSS
VL: AVVLTQTASPVSGAVGGTVTIKCQASQNIYNNLAWYRQKPGQPPKLLIYAASKLASGVPSRFSGSRSGTQFTLSISDLECADAATYYCQSYYFDSSSTDAAFGGGTEVVVK
notes: as for B1
IC50 (recombinant human KDR [1]): 19.8 nM
